These results are taken from publication PMC9150345.

In assay [1] the target is Antp^AAAA-hTBP pair (VC-Antp YPWM mutant with VN-TBP) as acceptor in BiFC-FRET (Drosophila | human) (UniProt P02833).
Assay [2] has as its target AntpΔN-hTBP pair (VC-AntpΔN with VN-TBP) as acceptor in BiFC-FRET (Drosophila | human) (UniProt P02833).
Assay [3] deals with Antp^AAAA, Antp with the YPWM motif substituted by alanines, fused to the C-terminal fragment of Venus (Drosophila), P02833.
The target in assay [4] is Antp^I32A−H36A-hTBP pair (VC-Antp HD helix 2 mutant with VN-TBP) as acceptor in BiFC-FRET (Drosophila | human) (UniProt P20226).
Sequence of Antp^I32A−H36A-hTBP pair (VC-Antp HD helix 2 mutant with VN-TBP) as acceptor in BiFC-FRET (Drosophila | human) (P20226 whole entry, looked up, stated change not applied, tested part not stated): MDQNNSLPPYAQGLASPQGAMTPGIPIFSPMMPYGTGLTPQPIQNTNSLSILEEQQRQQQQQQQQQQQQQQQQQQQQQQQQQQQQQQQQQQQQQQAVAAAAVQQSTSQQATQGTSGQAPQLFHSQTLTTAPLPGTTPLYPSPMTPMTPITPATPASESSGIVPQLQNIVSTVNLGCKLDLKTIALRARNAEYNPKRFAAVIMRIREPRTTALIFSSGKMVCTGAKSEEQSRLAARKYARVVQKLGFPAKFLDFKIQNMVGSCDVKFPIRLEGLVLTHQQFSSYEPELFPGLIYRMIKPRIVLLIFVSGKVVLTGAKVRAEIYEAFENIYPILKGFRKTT

Sequence of AntpΔN-hTBP pair (VC-AntpΔN with VN-TBP) as acceptor in BiFC-FRET (Drosophila | human) (P02833 270-378, stated change not applied, chain 1 of 2): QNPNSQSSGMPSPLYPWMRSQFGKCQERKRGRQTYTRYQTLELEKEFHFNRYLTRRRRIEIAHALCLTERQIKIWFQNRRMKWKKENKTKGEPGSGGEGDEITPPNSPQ
Sequence of AntpΔN-hTBP pair (VC-AntpΔN with VN-TBP) as acceptor in BiFC-FRET (Drosophila | human) (P20226 whole entry, stated change not applied, chain 2 of 2, further chain, the tested form may be a part): as the sequence (P20226 whole entry, looked up, stated change not applied, tested part not stated) above
Sequence of Antp^AAAA-hTBP pair (VC-Antp YPWM mutant with VN-TBP) as acceptor in BiFC-FRET (Drosophila | human) (P02833 whole entry, stated change not applied, chain 1 of 2): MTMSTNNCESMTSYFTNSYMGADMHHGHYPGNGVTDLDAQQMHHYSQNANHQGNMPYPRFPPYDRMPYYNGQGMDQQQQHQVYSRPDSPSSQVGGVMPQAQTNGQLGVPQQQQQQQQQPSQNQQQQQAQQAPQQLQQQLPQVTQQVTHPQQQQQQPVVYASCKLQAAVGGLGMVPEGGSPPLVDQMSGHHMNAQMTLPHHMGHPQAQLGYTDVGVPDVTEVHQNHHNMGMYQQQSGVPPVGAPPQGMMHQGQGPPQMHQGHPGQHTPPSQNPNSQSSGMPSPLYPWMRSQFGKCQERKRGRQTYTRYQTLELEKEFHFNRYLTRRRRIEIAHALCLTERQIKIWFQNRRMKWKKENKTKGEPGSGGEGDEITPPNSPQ
Sequence of Antp^AAAA-hTBP pair (VC-Antp YPWM mutant with VN-TBP) as acceptor in BiFC-FRET (Drosophila | human) (P20226 whole entry, stated change not applied, chain 2 of 2, further chain): as the sequence (P20226 whole entry, looked up, stated change not applied, tested part not stated) above
Sequence of Antp^AAAA, Antp with the YPWM motif substituted by alanines, fused to the C-terminal fragment of Venus (Drosophila), P02833 (P02833 whole entry, the tested form may be a part): as the sequence (P02833 whole entry, stated change not applied, chain 1 of 2) above

B1: Extradenticle (Exd) (144–376) fused to ECFP (domain or fragment)
chain: DGADNAIEHSDYRAKLAQIRQIYHQELEKYEQACNEFTTHVMNLLREQSRTRPITPKEIERMVQIIHKKFSSIQMQLKQSTCEAVMILRSRFLDARRKRRNFSKQASEILNEYFYSHLSNPYPSEEAKEELARKCGITVSQVSNWFGNKRIRYKKNIGKAQEEANLYAAKKAAGASPYSMAGPPSGTTTPMMSPAPPQDSMGYPMGSGGYDQQQPYDNSMGGYDPNLHQDLSP
As for B1, the transactivation on pGLH11 of Antp^AAAA with TBP and Exd, percent of Antp alone (Fig. 5C) in assay [1] was found to be 70%. The transactivation on pGLH11 of AntpΔN with TBP and Exd, percent of Antp alone (Fig. 5C) in assay [2] came out at 65%.

B2: Extradenticle (Exd) (144–376) fused to ECFP, P40427 144-376 (domain or fragment)
chain: DGADNAIEHSDYRAKLAQIRQIYHQELEKYEQACNEFTTHVMNLLREQSRTRPITPKEIERMVQIIHKKFSSIQMQLKQSTCEAVMILRSRFLDARRKRRNFSKQASEILNEYFYSHLSNPYPSEEAKEELARKCGITVSQVSNWFGNKRIRYKKNIGKAQEEANLYAAKKAAGASPYSMAGPPSGTTTPMMSPAPPQDSMGYPMGSGGYDQQQPYDNSMGGYDPNLHQDLSP
Turning to B2, the transactivation on pGLH11 of Antp^AAAA with Exd, percent of Antp alone (Fig. 5C) in assay [3] turned out to be 97%.

B3: TFIIEβ fused to ECFP (natural protein)
chain: MDPALLREREAFKKRAMATPTVEKKSKPDRPAPPPPSDDSRRKMRPPNAPRLDATTYKTMSGSSQYRFGVLAKIVKFMRTRHQDGDDHPLTIDEILDETNQLDIGQSVKNWLASEALHNNPKVEASPCGTKFSFKPVYKIKDGKTLMRLLKQHDLKGLGGILLDDVQESLPHCEKVLKNRSAEILFVVRPIDKKKILFYNDRTANFSVDDEFQKLWRSATVDAMDDAKIDEYLEKQGIRSMQDHGLKKAIPKRKKAANKKRQFKKPRDNEHLADVLEVYEDNTLTLKGVNPT
B3 registered a transactivation on pGLH11 of Antp^I32A−H36A with TBP and TFIIEβ, percent of Antp alone (Fig. 5B) in assay [4] of 72%.
